In patent US10772928B2, “Modulation and detection of a neuronal alternative splicing regulatory network for treatment and diagnosis of neurological disorders” (The Governing Council of the University of Toronto, priority 2014, dated 2020):

T1: nSR100 (Mus musculus, UniProt Q8BKA3)
T1 construct: host or cells: mouse N2A cells
T1 sequence (Q8BKA3 1-608): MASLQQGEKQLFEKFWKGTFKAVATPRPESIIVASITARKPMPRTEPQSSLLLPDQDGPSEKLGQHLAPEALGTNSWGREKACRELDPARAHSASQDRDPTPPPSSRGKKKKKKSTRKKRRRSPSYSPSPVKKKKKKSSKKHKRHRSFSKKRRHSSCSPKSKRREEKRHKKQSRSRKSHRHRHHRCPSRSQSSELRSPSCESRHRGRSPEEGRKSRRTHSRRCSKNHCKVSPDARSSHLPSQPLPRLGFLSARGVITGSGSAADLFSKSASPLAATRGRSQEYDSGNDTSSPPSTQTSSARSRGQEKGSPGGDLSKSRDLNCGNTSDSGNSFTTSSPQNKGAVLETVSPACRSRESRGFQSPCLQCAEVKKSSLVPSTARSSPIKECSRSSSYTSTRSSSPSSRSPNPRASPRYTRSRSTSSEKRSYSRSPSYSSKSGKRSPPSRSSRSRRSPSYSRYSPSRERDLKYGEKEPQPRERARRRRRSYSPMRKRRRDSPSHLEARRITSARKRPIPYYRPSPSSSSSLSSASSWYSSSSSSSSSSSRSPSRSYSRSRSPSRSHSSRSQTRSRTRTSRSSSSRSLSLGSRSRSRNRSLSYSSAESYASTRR


Target: T1, nSR100
Test: AP-MS nSR100 interaction partners from mouse N2A cells (Table 5)
Assay type: binding
Conditions: for AvgP (average of the SAINT scores) / MaxP (maximal SAINT score): bait Srrm4; for FoldChange between the prey Avg spectra of the bait and control purifications: bait Srrm4, 0.1 added to prevent division by 0; for AvgSpec (average number of spectra per replicate): bait Srrm4, 2 replicates; for Spectra (number of spectra for the prey in the purification of the bait): AP-MS; for SpecSum: bait Srrm4, sum of spectra over 2 replicates
[1] = bait Srrm4, biological replicate 1 (first number of the cell)
[2] = bait Srrm4, biological replicate 2 (second number of the cell)

Text: By applying affinity purification coupled to mass-spectrometry (AP-MS), several interaction nSR100 partner proteins were detected that provide insight into mechanisms of post-translational regulation of nSR100 levels.

Row | Molecule | AvgP (average of the SAINT scores) | MaxP (maximal SAINT score) | FoldChange between the prey Avg spectra of the bait and control purifications | AvgSpec (average number of spectra per replicate) | Spectra (number of spectra for the prey in the purification of the bait) [1] | Spectra (number of spectra for the prey in the purification of the bait) [2] | SpecSum
1 | Ywhaq (protein, UniProt P68254 1-245, looked up) 14-3-3 protein theta: MEKTELIQKAKLAEQAERYDDMATCMKAVTEQGAELSNEERNLLSVAYKNVVGGRRSAWRVISSIEQKTDTSDKKLQLIKDYREKVESELRSICTTVLELLDKYLIANATNPESKVFYLKMKGDYFRYLAEVACGDDRKQTIENSQGAYQEAFDISKKEMQPTHPIRLGLALNFSVFYYEILNNPELACTLAKTAFDEAIAELDTLNEDSYKDSTLIMQLLRDNLTLWTSDSAGEECDAAEGAEN | 1 | 1 | 180 | 18 | 15 | 21 | 36
2 | Csnk1d (protein, UniProt Q9DC28 1-415, looked up) Casein kinase I isoform delta: MELRVGNRYRLGRKIGSGSFGDIYLGTDIAAGEEVAIKLECVKTKHPQLHIESKIYKMMQGGVGIPTIRWCGAEGDYNVMVMELLGPSLEDLFNFCSRKFSLKTVLLLADQMISRIEYIHSKNFIHRDVKPDNFLMGLGKKGNLVYIIDFGLAKKYRDARTHQHIPYRENKNLTGTARYASINTHLGIEQSRRDDLESLGYVLMYFNLGSLPWQGLKAATKRQKYERISEKKMSTPIEVLCKGYPSEFATYLNFCRSLRFDDKPDYSYLRQLFRNLFHRQGFSYDYVFDWNMLKFGASRAADDAERERRDREERLRHSRNPATRGLPSTASGRLRGTQEVAPPTPLTPTSHTANTSPRPVSGMERERKVSMRLHRGAPVNVSSSDLTGRQDTSRMSTSQIPGRVASSGLQSVVHR | 1 | 1 | 55 | 5.5 | 7 | 4 | 11
3 | U2af2 (protein, UniProt P26369 2-475, looked up) Splicing factor U2AF 65 kDa …: SDFDEFERQLNENKQERDKENRHRKRSHSRSRSRDRKRRSRSRDRRNRDQRSASRDRRRRSKPLTRGAKEEHGGLIRSPRHEKKKKVRKYWDVPPPGFEHITPMQYKAMQAAGQIPATALLPTMTPDGLAVTPTPVPVVGSQMTRQARRLYVGNIPFGITEEAMMDFFNAQMRLGGLTQAPGNPVLAVQINQDKNFAFLEFRSVDETTQAMAFDGIIFQGQSLKIRRPHDYQPLPGMSENPSVYVPGVVSTVVPDSAHKLFIGGLPNYLNDDQVKELLTSFGPLKAFNLVKDSATGLSKGYAFCEYVDINVTDQAIAGLNGMQLGDKKLLVQRASVGAKNATLVSLPSTINQTPVTLQVPGLMSSQVQMGGHPTEVLCLMNMVLPEELLDDEEYEEIVEDVRDECSKYGLVKSIEIPRPVDGVEVPGCGKIFVEFTSVFDCQKAMQGLTGRKFANRVVVTKYCDPDSYHRRDFW | 1 | 1 | 4.83 | 111 | 108 | 114 | 222
4 | U2af1 (protein, UniProt Q9D883 2-239, looked up) Splicing factor U2AF 35 kDa …: AEYLASIFGTEKDKVNCSFYFKIGACRHGDRCSRLHNKPTFSQTIALLNIYRNPQNSSQSADGLRCAVSDVEMQEHYDEFFEEVFTEMEEKYGEVEEMNVCDNLGDHLVGNVYVKFRREEDAEKAVIDLNNRWFNGQPIHAELSPVTDFREACCRQYEMGECTRGGFCNFMHLKPISRELRRELYGRRRKKHRSRSRSRERRSRSRDRGRGGGGGGGGGGGRERDRRRSRDRERSGRF | 1 | 1 | 4.6 | 23 | 22 | 24 | 46
